Data on six variants can be found in IntAct's records for PubMed 30126976.

To fix the notation:
B1: Peroxiredoxin-5, mitochondrial (Homo sapiens), P30044 (parent)
chain: MGLAGVCALRRSAGYILVGGAGGQSAAAAARRYSEGEWASGGVRSFSRAAAAMAPIKVGDAIPAVEVFEGEPGNKVNLAELFKGKKGVLFGVPGAFTPGCSKTHLPGFVEQAEALKAKGVQVVACLSVNDAFVTGEWGRAHKAEGKVRLLADPTGAFGKETDLLLDDSLVSIFGNRRLKRFSMVVQDGIVKALNVEPDGTGLTCSLAPNIISQL
B2: Protein FAM163B (Homo sapiens), P0C2L3 (parent)
chain: MTAGTVVITGGILATVILLCIIAVLCYCRLQYYCCKKDESEEDEEEPDFAVHSHLPPLHSNRNLVLTNGPALYPTASTSFSQKSPQARALCRSCSHCEPPTFFLQEPPEEEEDVLNGGERVLYKSVSQEDVELPPGGFGGLQALNPNRLSAMREAFARSRSISTDV
B3: Olfactory receptor 5F1 (Homo sapiens), O95221 (parent)
chain: MTRKNYTSLTEFVLLGLADTLELQIILFLFFLVIYTLTVLGNLGMILLIRIDSQLHTPMYFFLANLSFVDVCNSTTITPKMLADLLSEKKTISFAGCFLQMYFFISLATTECILFGLMAYDRYAAICRPLLYSLIMSRTVYLKMAAGAFAAGLLNFMVNTSHVSSLSFCDSNVIHHFFCDSPPLFKLSCSDTILKESISSILAGVNIVGTLLVILSSYSYVLFSIFSMHSGEGRHRAFSTCASHLTAIILFYATCIYTYLRPSSSYSLNQDKVASVFYTVVIPMLNPLIYSLRSKEVKKALANVISRKRTSSFL
B4: Disintegrin and metalloproteinase domain-containing protein 22 (Homo sapiens), Q9P0K1 (parent)
chain: MQAAVAVSVPFLLLCVLGTCPPARCGQAGDASLMELEKRKENRFVERQSIVPLRLIYRSGGEDESRHDALDTRVRGDLGGPQLTHVDQASFQVDAFGTSFILDVVLNHDLLSSEYIERHIEHGGKTVEVKGGEHCYYQGHIRGNPDSFVALSTCHGLHGMFYDGNHTYLIEPEENDTTQEDFHFHSVYKSRLFEFSLDDLPSEFQQVNITPSKFILKPRPKRSKRQLRRYPRNVEEETKYIELMIVNDHLMFKKHRLSVVHTNTYAKSVVNMADLIYKDQLKTRIVLVAMETWATDNKFAISENPLITLREFMKYRRDFIKEKSDAVHLFSGSQFESSRSGAAYIGGICSLLKGGGVNEFGKTDLMAVTLAQSLAHNIGIISDKRKLASGECKCEDTWSGCIMGDTGYYLPKKFTQCNIEEYHDFLNSGGGACLFNKPSKLLDPPECGNGFIETGEECDCGTPAECVLEGAECCKKCTLTQDSQCSDGLCCKKCKFQPMGTVCREAVNDCDIRETCSGNSSQCAPNIHKMDGYSCDGVQGICFGGRCKTRDRQCKYIWGQKVTASDKYCYEKLNIEGTEKGNCGKDKDTWIQCNKRDVLCGYLLCTNIGNIPRLGELDGEITSTLVVQQGRTLNCSGGHVKLEEDVDLGYVEDGTPCGPQMMCLEHRCLPVASFNFSTCLSSKEGTICSGNGVCSNELKCVCNRHWIGSDCNTYFPHNDDAKTGITLSGNGVAGTNIIIGIIAGTILVLALILGITAWGYKNYREQRQLPQGDYVKKPGDGDSFYSDIPPGVSTNSASSSKKRSNGLSHSWSERIPDTKHISDICENGRPRSNSWQGNLGGNKKKIRGKRFRPRSNSTETLSPAKSPSSSTGSIASSRKYPYPMPPLPDEDKKVNRQSARLWETSI
B5: Colorectal mutant cancer protein (Homo sapiens), P23508 (parent)
chain: MNSGVAMKYGNDSSAELSELHSAALASLKGDIVELNKRLQQTERERDLLEKKLAKAQCEQSHLMREHEDVQERTTLRYEERITELHSVIAELNKKIDRLQGTTIREEDEYSELRSELSQSQHEVNEDSRSMDQDQTSVSIPENQSTMVTADMDNCSDLNSELQRVLTGLENVVCGRKKSSCSLSVAEVDKHIEQLTTASEHCDLAIKTVEEIEGVLGRDLYPNLAEERSRWEKELAGLREENESLTAMLCSKEEELNRTKATMNAIREERDRLRRRVRELQTRLQSVQATGPSSPGRLTSTNRPINPSTGELSTSSSSNDIPIAKIAERVKLSKTRSESSSSDRPVLGSEISSIGVSSSVAEHLAHSLQDCSNIQEIFQTLYSHGSAISESKIREFEVETERLNSRIEHLKSQNDLLTITLEECKSNAERMSMLVGKYESNATALRLALQYSEQCIEAYELLLALAESEQSLILGQFRAAGVGSSPGDQSGDENITQMLKRAHDCRKTAENAAKALLMKLDGSCGGAFAVAGCSVQPWESLSSNSHTSTTSSTASSCDTEFTKEDEQRLKDYIQQLKNDRAAVKLTMLELESIHIDPLSYDVKPRGDSQRLDLENAVLMQELMAMKEEMAELKAQLYLLEKEKKALELKLSTREAQEQAYLVHIEHLKSEVEEQKEQRMRSLSSTSSGSKDKPGKECADAASPALSLAELRTTCSENELAAEFTNAIRREKKLKARVQELVSALERLTKSSEIRHQQSAEFVNDLKRANSNLVAAYEKAKKKHQNKLKKLESQMMAMVERHETQVRMLKQRIALLEEENSRPHTNETSL

The first assay covers variants of B1. As to conditions: with scrib_human SCRIB.
Target sequence in this assay (Q14160 whole entry): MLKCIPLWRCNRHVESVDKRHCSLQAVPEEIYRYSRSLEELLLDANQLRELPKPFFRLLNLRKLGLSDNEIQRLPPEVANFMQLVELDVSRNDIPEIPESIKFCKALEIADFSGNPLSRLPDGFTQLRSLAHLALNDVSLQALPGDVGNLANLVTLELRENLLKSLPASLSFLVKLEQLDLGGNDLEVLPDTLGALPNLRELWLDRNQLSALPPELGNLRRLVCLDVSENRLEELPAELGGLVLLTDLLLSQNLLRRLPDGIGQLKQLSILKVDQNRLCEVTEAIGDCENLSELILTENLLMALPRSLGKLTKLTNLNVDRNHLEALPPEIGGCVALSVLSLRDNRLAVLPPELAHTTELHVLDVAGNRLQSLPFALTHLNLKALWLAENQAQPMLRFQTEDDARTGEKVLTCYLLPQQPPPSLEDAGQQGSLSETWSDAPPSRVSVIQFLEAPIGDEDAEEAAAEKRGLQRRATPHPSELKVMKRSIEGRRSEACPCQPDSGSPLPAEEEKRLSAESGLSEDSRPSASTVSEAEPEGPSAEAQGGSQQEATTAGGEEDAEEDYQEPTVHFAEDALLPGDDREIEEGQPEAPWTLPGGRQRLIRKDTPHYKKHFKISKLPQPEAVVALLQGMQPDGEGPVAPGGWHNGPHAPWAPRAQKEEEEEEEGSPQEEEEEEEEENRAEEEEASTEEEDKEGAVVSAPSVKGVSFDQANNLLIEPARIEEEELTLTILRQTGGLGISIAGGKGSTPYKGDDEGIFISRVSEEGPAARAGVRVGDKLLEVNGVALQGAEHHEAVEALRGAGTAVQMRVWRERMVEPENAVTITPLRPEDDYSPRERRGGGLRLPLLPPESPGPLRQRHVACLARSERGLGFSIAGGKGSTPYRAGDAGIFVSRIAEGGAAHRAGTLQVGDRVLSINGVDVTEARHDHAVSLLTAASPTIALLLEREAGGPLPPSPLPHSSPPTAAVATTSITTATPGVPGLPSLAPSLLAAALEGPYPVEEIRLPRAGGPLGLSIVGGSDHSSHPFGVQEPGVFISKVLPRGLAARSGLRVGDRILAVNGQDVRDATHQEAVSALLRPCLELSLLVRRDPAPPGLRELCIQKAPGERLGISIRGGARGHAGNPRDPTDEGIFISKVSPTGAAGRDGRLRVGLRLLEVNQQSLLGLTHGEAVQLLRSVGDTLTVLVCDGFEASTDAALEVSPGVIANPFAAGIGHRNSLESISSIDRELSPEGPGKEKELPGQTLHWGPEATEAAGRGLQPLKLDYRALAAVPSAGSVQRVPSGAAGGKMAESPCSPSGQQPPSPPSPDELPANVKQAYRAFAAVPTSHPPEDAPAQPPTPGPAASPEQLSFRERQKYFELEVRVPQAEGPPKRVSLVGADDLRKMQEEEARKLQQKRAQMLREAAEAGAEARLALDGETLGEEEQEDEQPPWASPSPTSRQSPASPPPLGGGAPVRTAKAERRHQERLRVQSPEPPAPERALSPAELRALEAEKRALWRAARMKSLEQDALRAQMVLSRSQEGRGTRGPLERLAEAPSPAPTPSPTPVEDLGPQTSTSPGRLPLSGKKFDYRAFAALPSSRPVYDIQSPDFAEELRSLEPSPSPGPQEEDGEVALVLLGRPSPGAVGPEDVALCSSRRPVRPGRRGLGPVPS
MGLAGVCALRRSAGYILVGGAGGQSAAAAARRYSEGEWASGGVRSFSRAAAAMAPIKVGDAIPAVEVFEGEPGNKVNLAELFKGKKGVLFGVPGAFTPGCSKTHLPGFVEQAEALKAKGVQVVACLSVNDAFVTGEWGRAHKAEGKVRLLADPTGAFGKETDLLLDDSLVSIFGNRRLKRFSMVVQDGIVKALNVEPDGTGLTCSLAPNIIEQL [S212E]: the “effect of a mutation on the interaction” value is listed as “with no effect”.

Another assay covers variants of B2. As to conditions: with scrib_human SCRIB.
Target sequence in this assay (Q14160 whole entry): as the sequence (Q14160 whole entry) above
On to MTAGTVVITGGILATVILLCIIAVLCYCRLQYYCCKKDESEEDEEEPDFAVHSHLPPLHSNRNLVLTNGPALYPTASTSFSQKSPQARALCRSCSHCEPPTFFLQEPPEEEEDVLNGGERVLYKSVSQEDVELPPGGFGGLQALNPNRLSAMREAFARSRSISEDV [T164E], for which the “effect of a mutation on the interaction” value is reported as “disrupting interaction strength”.

Variants of B2 are the subject of another assay. As to conditions: with dlg1_human DLG1, Q12959.
Target sequence in this assay (Q12959 whole entry, looked up): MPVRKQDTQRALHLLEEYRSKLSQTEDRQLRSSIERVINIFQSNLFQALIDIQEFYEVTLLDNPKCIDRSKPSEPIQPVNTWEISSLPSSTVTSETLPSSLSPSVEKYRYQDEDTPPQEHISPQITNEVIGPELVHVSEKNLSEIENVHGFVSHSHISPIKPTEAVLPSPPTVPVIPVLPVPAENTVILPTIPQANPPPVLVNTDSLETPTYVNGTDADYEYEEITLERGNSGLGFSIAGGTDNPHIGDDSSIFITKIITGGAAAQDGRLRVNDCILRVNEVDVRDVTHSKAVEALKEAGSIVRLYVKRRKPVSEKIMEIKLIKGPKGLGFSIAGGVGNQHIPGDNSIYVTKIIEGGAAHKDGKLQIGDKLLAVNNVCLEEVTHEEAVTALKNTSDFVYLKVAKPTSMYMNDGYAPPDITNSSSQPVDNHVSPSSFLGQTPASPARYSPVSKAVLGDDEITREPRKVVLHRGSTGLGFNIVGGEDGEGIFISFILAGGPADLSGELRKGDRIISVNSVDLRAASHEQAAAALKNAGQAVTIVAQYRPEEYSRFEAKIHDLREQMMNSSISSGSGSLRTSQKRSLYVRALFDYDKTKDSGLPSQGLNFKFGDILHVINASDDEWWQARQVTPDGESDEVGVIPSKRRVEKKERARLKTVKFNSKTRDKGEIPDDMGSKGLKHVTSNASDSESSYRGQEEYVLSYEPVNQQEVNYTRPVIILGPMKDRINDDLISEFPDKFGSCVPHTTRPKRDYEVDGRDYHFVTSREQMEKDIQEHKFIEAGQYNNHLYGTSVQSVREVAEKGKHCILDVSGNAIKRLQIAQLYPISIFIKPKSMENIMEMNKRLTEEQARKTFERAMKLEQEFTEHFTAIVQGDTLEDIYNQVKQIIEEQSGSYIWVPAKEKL
On to MTAGTVVITGGILATVILLCIIAVLCYCRLQYYCCKKDESEEDEEEPDFAVHSHLPPLHSNRNLVLTNGPALYPTASTSFSQKSPQARALCRSCSHCEPPTFFLQEPPEEEEDVLNGGERVLYKSVSQEDVELPPGGFGGLQALNPNRLSAMREAFARSRSISEDV [T164E], for which the “effect of a mutation on the interaction” value was “disrupting interaction strength”.

In a further assay the parent is B2. Conditions: with scrib_human SCRIB. This is another data set of the same source.
Target sequence in this assay (Q14160 whole entry): as the sequence (Q14160 whole entry) above
On to MTAGTVVITGGILATVILLCIIAVLCYCRLQYYCCKKDESEEDEEEPDFAVHSHLPPLHSNRNLVLTNGPALYPTASTSFSQKSPQARALCRSCSHCEPPTFFLQEPPEEEEDVLNGGERVLYKSVSQEDVELPPGGFGGLQALNPNRLSAMREAFARSRSIETDV [S163E], for which the “effect of a mutation on the interaction” value is given as “with no effect”.

The variants in the next assay derive from B3. As to conditions: with scrib_human SCRIB.
Target sequence in this assay (Q14160 whole entry): as the sequence (Q14160 whole entry) above
In the case of MTRKNYTSLTEFVLLGLADTLELQIILFLFFLVIYTLTVLGNLGMILLIRIDSQLHTPMYFFLANLSFVDVCNSTTITPKMLADLLSEKKTISFAGCFLQMYFFISLATTECILFGLMAYDRYAAICRPLLYSLIMSRTVYLKMAAGAFAAGLLNFMVNTSHVSSLSFCDSNVIHHFFCDSPPLFKLSCSDTILKESISSILAGVNIVGTLLVILSSYSYVLFSIFSMHSGEGRHRAFSTCASHLTAIILFYATCIYTYLRPSSSYSLNQDKVASVFYTVVIPMLNPLIYSLRSKEVKKALANVISRKRTESFL [S311E], the “effect of a mutation on the interaction” value is reported as “causing an interaction”.

The variants in another assay derive from B4. As to conditions: with scrib_human SCRIB.
Target sequence in this assay (Q14160 whole entry): as the sequence (Q14160 whole entry) above
As to S898E, the “effect of a mutation on the interaction” value was “decreasing interaction strength”.

In a further assay the parent is B5. Conditions: with scrib_human SCRIB.
Target sequence in this assay (Q14160 whole entry): as the sequence (Q14160 whole entry) above
On to S828E, for which the “effect of a mutation on the interaction” value is recorded as “increasing interaction strength”.

Variants of B5 are the subject of another assay. Conditions: with shan1_human SHANK1, Q9Y566.
Chain of shan1_human SHANK1, Q9Y566 (Q9Y566 whole entry): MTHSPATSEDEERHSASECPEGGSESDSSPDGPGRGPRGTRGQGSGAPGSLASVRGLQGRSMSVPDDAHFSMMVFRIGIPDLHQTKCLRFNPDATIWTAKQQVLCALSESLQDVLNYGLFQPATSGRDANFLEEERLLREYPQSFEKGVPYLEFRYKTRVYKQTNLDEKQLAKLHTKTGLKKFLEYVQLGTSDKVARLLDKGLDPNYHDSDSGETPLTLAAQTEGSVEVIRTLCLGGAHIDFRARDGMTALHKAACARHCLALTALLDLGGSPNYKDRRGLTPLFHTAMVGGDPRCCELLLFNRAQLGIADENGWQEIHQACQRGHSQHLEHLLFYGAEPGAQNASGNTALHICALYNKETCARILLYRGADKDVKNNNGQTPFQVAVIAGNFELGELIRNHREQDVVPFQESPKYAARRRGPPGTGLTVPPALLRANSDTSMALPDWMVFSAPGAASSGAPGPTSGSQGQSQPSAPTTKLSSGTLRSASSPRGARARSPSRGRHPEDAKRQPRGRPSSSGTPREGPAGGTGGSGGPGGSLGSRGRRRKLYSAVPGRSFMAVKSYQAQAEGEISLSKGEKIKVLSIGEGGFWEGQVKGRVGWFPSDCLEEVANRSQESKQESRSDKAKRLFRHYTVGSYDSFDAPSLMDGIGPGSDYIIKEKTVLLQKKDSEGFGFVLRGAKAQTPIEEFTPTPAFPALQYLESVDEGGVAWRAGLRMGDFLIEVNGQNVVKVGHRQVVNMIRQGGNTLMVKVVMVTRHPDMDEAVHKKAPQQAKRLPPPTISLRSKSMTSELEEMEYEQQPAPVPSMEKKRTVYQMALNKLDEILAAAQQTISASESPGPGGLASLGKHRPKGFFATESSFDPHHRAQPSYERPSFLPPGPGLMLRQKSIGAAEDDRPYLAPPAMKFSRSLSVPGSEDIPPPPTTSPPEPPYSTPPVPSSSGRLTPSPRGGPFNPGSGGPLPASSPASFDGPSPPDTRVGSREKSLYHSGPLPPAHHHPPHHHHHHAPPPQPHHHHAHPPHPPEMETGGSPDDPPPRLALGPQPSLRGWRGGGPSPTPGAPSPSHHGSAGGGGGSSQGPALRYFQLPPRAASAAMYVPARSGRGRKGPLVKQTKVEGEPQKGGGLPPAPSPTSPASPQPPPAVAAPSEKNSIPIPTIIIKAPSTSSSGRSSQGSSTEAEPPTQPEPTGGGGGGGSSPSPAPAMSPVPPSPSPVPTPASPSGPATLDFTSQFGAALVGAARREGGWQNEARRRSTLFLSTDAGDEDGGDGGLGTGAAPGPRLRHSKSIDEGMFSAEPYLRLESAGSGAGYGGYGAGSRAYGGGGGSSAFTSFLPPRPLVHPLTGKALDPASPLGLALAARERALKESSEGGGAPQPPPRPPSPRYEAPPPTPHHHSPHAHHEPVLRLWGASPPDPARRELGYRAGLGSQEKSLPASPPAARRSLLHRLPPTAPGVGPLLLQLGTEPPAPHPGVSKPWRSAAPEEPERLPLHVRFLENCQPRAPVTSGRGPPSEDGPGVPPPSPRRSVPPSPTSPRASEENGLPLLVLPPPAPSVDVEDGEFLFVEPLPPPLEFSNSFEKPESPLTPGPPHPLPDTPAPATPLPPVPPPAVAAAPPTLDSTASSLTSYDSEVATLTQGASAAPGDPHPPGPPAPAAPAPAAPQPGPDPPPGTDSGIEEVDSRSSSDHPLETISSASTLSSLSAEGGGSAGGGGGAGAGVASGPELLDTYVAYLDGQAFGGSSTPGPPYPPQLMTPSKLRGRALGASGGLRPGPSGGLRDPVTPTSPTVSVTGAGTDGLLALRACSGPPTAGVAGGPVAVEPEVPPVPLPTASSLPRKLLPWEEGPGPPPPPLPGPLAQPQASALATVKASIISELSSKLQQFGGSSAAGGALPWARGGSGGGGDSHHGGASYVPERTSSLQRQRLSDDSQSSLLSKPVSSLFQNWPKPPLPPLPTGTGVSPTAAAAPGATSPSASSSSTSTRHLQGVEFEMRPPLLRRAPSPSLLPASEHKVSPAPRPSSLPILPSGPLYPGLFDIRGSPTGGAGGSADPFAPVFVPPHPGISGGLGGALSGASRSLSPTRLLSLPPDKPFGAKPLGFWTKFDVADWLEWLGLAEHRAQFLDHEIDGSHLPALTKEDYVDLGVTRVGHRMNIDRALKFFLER
S828E: the “effect of a mutation on the interaction” value is given as “decreasing interaction strength”.

Another assay covers variants of B5. As to conditions: with dlg1_human DLG1, Q12959.
Target sequence in this assay (Q12959 whole entry, looked up): as the sequence (Q12959 whole entry, looked up) above
Regarding S828E, the “effect of a mutation on the interaction” value is reported as “decreasing interaction strength”.
